Data set [1] deals with P-factor receptor (encoded by the mam2 gene) (Schizosaccharomyces pombe) (UniProt Q00619).
For the next data set, the system named is Sz. pombe cells. The following applies: cited from earlier work.
The next data set has as its system S. cerevisiae cells. Particulars: cited from earlier work.

Like-named read-outs stand apart in the source and are kept apart here. Some results are limits rather than exact numbers.

In data set [1], P-factor mating pheromone (peptide) yielded a colony formation of sxa2>ura4 reporter cells on plates lacking uracil with different concentrations of P-factor of over 10 units/ml.
Turning to Diphtheria toxin, the results for the “Sensitivity of cells to the toxin” value in the data set with Sz. pombe cells, in the data set with S. cerevisiae cells (S. cerevisiae spheroplasts (cell wall enzymatically removed)) and in the data set on S. cerevisiae cells (intact S. cerevisiae cells) were “sensitive”, “sensitive” and “resistant”, respectively.

The values above are taken from patent US20040110252A1, “Yeast-based assay” (priority 2000, published 2004).
